# B1: V5- and myc-tagged STEP61 (wild type) (enzyme, UniProt P54830-1 1-541, looked up)
# chain: MCCSERLLGLPQPVEMEAPDEAEGLPSKQKEMPPPPPPSPPSEPAQKLPPQGAGSHSLTVRSSLCLFAASQFLLACGVLWLSGHGHSWLQNTTDLISSSLTVLNHLGPVAWLGSGTWGIPSLLLVSLTVSLVIVTTLVWHLLKAPPEPPAPLPPEDRRQSVSRQPSFTYSEWMEEKVEDDFLDLDAVPETPVFDCVMDIKPETDPASLTVKSMGLQERRGSNVSLTLDMCTPGCNEEGFGYLVSPREESAHEYLLSASRVLRAEELHEKALDPFLLQAEFFEIPMNFVDPKEYDIPGLVRKNRYKTILPNPHSRVRLTSPDPEDPLSSYINANYIRGYSGEEKVYIATQGPIVSTVADFWRMVWQERTPIIVMITNIEEMNEKCTEYWPEEQVVHDGVEITVQKVIHTEDYRLRLISLRRGTEERSLKHYWFTSWPDQKTPDRAPPLLHLVREVEEAAQQEGPHCSPIIVHCSAGIGRTGCFIATSICCQQLRREGVVDILKTTCQLRQDRGGMIQTCEQYQFVHHAMSLYEKQLSLQSSE
# Assays:
# [1] = target: striatal-enriched tyrosine phosphatase STEP61 (endogenous, rat brain) (rat (endogenous in Sprague-Dawley rat brain)); assay: non-reducing SDS-PAGE and immunoblot
# [2] = target: the molecule itself; assay: non-reducing SDS-PAGE and immunoblot
Molecule,"dimer band after N-acetyl cysteine, percent of untreated aged control, cortex [1]","fold increase of the dimer band in aged rats, cortex [1] [fold]","fold increase of the dimer band in aged rats, hippocampus [1] [fold]",stoichiometry N [1],stoichiometry N [2]
"striatal-enriched tyrosine phosphatase STEP61 (endogenous, rat brain) (enzyme)",59.4 % of control,6.2,5.9,2,–
B1,–,–,–,–,≥ 2
